Measurements from publication PMC3066073.
Where two headings read alike, the source gives them in different places.

Key:
[1] = target: T1, RUNX1 (recombinant) (UniProt Q01196 1-453); test: EMSA, supershift
[2] = target: T1, RUNX1 (recombinant); test: EMSA, supershift; remark: listed apart in the source

T1 sequence (Q01196 whole entry): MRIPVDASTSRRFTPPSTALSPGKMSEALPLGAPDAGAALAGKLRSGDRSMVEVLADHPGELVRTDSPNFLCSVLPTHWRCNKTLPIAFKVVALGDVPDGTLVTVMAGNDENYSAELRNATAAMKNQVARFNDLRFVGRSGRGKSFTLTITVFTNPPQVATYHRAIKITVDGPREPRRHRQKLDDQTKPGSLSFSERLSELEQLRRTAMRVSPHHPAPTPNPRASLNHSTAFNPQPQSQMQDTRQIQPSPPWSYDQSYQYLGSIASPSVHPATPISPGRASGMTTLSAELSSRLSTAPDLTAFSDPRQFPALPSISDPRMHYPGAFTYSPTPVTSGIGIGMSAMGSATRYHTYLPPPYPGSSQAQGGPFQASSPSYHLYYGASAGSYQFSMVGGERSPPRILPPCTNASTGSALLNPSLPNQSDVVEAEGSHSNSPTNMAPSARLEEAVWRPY

Binder	binding result [1]	binding result [2]
PKC-theta Wt probe III (dsDNA) DNA 1: ATGAGCCACCGCACCTGGCC DNA 2: GGCCAGGTGCGGTGGCTCAT	binds	–
PKC-theta Wt probe I (dsDNA) DNA 1: CAAATGCCTGGGGTAGGTCA DNA 2: TGACCTACCCCAGGCATTTG	–	binds
